Data from the Human Domainome abundance scans (Beltran et al. 2025).

B1: Protein piccolo, residues 1058 to 1114; numbered along this chain, Q9Y6V0 (parent)
chain: TCPLCKTELNIGSKDPPNFNTCTECKNQVCNLCGFNPTPHLTEIQEWLCLNCQTQRA
B2: Chromodomain-helicase-DNA-binding protein 4, residues 444 to 496; numbered along this chain, Q14839 (parent)
chain: EDDHHMEFCRVCKDGGELLCCDTCPSSYHIHCLNPPLPEIPNGEWLCPRCTCP

Variants of: B1
Experiment: abundance fitness (aPCA) (normalised: wild type 0, dead -1); higher = more abundant; growth selection in yeast, the domain comes from the species named
Conditions: Homo sapiens

Abundance fitness of substitutions, site by site:
T1: S -0.129
G34: Q -0.072

Variants of: B2
Experiment: as above
Conditions: Homo sapiens

Abundance fitness, by site and new letter:
E7: V -0.205 | A -0.366 | G -0.239 | C -0.15 | N -0.664 | I -0.481
L37: V -0.066 | F -0.271 | M -0.115 | C -0.194 | I -0.049 | N -0.244
H31: F 0.017 | L -0.194 | M -0.063 | K 0.035 | Q -0.042 | W -0.285 | T -0.042 | G 0.002
C32: I -0.898 | W -1.05 | Q -0.369 | V -0.914 | N -1.15 | K -0.933
P25: M -0.167 | V -0.18 | E -0.28 | W -0.061 | G -0.106
D22: A 0.032 | T 0.074 | W -0.254 | I -0.399 | N -0.085 | K 0.129
G15: S -0.061 | I -0.397 | C -0.508 | V -0.115 | Q -0.126 | P -0.154 | F -0.263 | L -0.486 | K 0.08
C20: V -0.035 | S 0.093 | Q 0.17 | Y 0.066 | F -0.035 | A 0.099 | G 0.083
T51: N 0.12 | R -0.073 | E 0.074 | K -0.051
E39: T 0.025 | C -0.178 | F -0.056 | Q -0.052 | M -0.095 | R -0.09
C21: N -0.787 | Q -0.76 | K -0.795 | Y -0.871 | W -1.12 | H -0.745 | V -1.05 | P -0.829 | S -0.994 | M -0.955
K13: R -0.087 | C -0.126 | Q -0.024 | T -0.134 | F -0.267
P41: V -0.154 | A -0.146 | G -0.133 | Y -0.463 | M -0.187 | F -0.06 | E -0.2
H29: Y -0.787 | R -0.97 | E -0.804 | W -1.1 | L -0.983 | P -0.814 | M -0.998 | D -0.811 | V -1.06
P36: K 0.102 | Q -0.026 | E -0.33 | T -0.18 | S -0.1 | W -0.546 | A -0.035 | C -0.546
H5: L -0.305 | M -0.12 | W 0.02 | E 0.116 | T 0.019 | S -0.129 | A 0.092
H4: P -0.294 | D 0.125 | E -0.126 | M 0.107 | F 0.301
D2: C -0.425 | A 0.05 | E 0.188
P48: L -0.622 | Y -0.567 | I -0.941 | C -0.815 | T -0.27 | V -0.504
I40: Q 0.01 | Y 0.016 | T -0.005 | H 0.017 | S -0.023 | F -0.057 | W -0.041
G43: K 0.03 | L -0.201 | I -0.144 | D -0.151 | Q -0.032 | V -0.075
T23: S -0.044 | V -0.075 | E 0.047 | D -0.305 | H -0.107 | I -0.042 | N 0.093 | P -0.738 | K -0.031
M6: I -0.021 | A 0.023 | Q -0.508 | W -0.231 | F -0.204
C52: F -0.358 | L 0 | S -0.002 | G 0.294 | V 0.032
L18: Q -0.397 | H -0.66 | C -0.761 | V -0.117 | K -0.517 | M 0.037 | T -0.373 | N -0.489 | F -0.581 | G -0.732
